Experiment [1] concerns the target T1, Rat MBL-A (mannan-binding lectin A) (rat, UniProt P19999 18-238).
T1 construct: mature; It was immobilised on the SPR chip by amine coupling
Put plainly: SPR, MBL immobilised, CUB2 injected, 5 mM Ca2+. As for the experimental part: (§1) Data were fitted to a model in which there is a single Ca²⁺ site.
(§2) MBL (0.025 mg/ml) was immobilized onto the surface of a GLM sensor chip (˜10,000 response units) at pH 4.5, using amine-coupling chemistry. […] For inhibition assays, MBL was immobilized on to a CM-5 sensor chip (14,000 response units) and binding was measured on a Biacore® 2000 (GE Healthcare) in 20 mM Tris/HCl pH 7.4, containing 140 mM NaCl, 5 mM Ca²⁺, and 0.005% SP-20. […] Changes in response units caused by differences in sample composition were subtracted from all data. To account for changes in ionic strength of the buffer due to the inhibitor, binding was measured in the presence of equivalent concentrations of NaCl.

Experiment [2] concerns the target T1, Rat MBL-A (mannan-binding lectin A). The experiment can be described thus: SPR, MBL immobilised, CUB2 at 20, 10, 5 and 2.5 µM, 1:1 model. As for the experimental part: as §1, §2

This note sets out measurements from patent US20120225437A1 (UNIVERSITY OF LEICESTER, published 2012).

B1: CUB2 domain of rat MASP-1/-3 (residues E165-A277 of the mature polypeptide, isoform 1) (other)
chain: CSGNLFTQRTGTITSPDYPNPYPKSSECSYTIDLEEGFMVTLQFEDIFDIEDHPEVPCPYDYIKIKAGSKVWGPFCGEKSPEPISTQSHSIQILFRSDNSGENRGWRLSYRA
notes: also called MASP-1 CUB2; rat MASP-1 CUB2
Regarding B1, in experiment [1], binding was put at a Kd of 27 µM. In experiment [2], this molecule yielded a koff of 0.0035 s⁻¹ and a kon of 131 M⁻¹ s⁻¹.
